This passage reports EC50 and IC50 results from patent US20110150901A1 (published 2011).

The target of experiment [1] is huR4. In words: ELISA. (In general: An ELISA detects its analyte on a solid surface through an enzyme-linked reagent.)
Experiment [2] concerns the target T1, recombinant human β-Klotho (UniProt Q86Z14 53-996). In words: binding.
In experiment [3] the target is huR4. In words: Alphascreen inhibition; FGF21/BK+R4.
A further experiment concerns the target huR1b. In words: ELISA.
The target in experiment [4] is T1, recombinant human β-Klotho. In words: ELISA.
Experiment [5] deals with T1, recombinant human β-Klotho. In words: ELISA. This is another data set of the same source.

T1 sequence (Q86Z14 53-996): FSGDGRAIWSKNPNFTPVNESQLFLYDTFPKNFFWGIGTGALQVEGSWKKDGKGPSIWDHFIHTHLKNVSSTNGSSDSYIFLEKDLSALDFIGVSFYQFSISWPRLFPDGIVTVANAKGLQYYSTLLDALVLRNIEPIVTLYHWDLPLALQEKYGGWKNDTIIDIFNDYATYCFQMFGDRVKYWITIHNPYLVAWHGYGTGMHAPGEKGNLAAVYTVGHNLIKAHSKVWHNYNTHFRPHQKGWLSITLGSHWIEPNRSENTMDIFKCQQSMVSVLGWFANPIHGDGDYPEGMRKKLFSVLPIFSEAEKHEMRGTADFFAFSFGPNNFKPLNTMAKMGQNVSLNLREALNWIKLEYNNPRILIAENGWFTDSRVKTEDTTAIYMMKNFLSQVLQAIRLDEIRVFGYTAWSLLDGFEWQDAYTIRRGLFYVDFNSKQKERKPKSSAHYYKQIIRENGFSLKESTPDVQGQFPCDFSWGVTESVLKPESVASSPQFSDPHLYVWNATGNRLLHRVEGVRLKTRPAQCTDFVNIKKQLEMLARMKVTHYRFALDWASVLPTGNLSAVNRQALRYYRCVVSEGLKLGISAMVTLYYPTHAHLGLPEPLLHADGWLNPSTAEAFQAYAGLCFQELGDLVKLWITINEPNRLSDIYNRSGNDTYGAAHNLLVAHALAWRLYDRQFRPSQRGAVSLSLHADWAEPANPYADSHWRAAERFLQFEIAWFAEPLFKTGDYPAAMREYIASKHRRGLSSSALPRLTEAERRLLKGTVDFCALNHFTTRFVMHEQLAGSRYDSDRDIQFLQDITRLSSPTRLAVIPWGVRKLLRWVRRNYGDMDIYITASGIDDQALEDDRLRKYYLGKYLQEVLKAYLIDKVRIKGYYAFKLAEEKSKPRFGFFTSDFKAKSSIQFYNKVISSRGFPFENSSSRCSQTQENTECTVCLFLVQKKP

B1: BK_RI_D05 (designed binder)
chain: CAAGQFRCHNSDTCLPGAWVCDGDNDCGDNSDEASCQKRTCHSFNQFECRNGQCIPLHLVCDGVPDCGDNSDETDCGDSHILPFSTPGPST
In the case of B1, in the experiment with huR4 [1], it took 45.1 nM to reach a half-maximal effect (EC50).

B2: β-Klotho walked dimer BK_R1c_D15 (designed binder)
chain: CLPDEFQCGSGRCIPQTWVCDGLNDCGDGSDEPPAHCSAPASEPPGSLCRSNQFTCGNGNCIPQPWVCDGEDDCGDDSDEESCKEHT
Take B2: the 50% effective concentration (EC50) (in general, the concentration at which the effect is half-maximal) in experiment [2] was 9.1 nM.
On to CLSDQFTCRSTNICLPLQWVCDGDDDCEDNSDEEDCSAPASEPPGSL (designed binder) [R1c_M31], for which the IC50 – broadly, the concentration needed to halve the response being measured – with huR4 [3] was 5000 nM. Moreover, the EC50 is roughly 300 nM with huR4 [1] and 112 nM with huR1b.

B3: β-Klotho walked dimer BK_R1c_D14 (designed binder)
chain: CLPDEFQCGSGRCIPQTWVCDGLNDCGDGSDEPPAHCSAPASEPPGSLCRSDEFRCGNGRCIPLTWVCDGEDDCQDSSDETGCTTPGHT
Turning to B3, the EC50 in experiment [2] is 23 nM.

B4: β-Klotho walked dimer bKWD01 (designed binder)
chain: CLPDEFQCGSGRCIPQHWLCDGLNDCGDGSDEPPAHCSAPASEPPGSLCRAGEFRCSNGRCVPLTWLCDGEDDCQDNSDEKNCAQPT
B4: the EC50 is 0.05 nM in experiment [2] and less than 0.4 nM in experiment [4].
With CRLNEFPCGSGSCISLHWVCDSVPDCRDDSDETDCPERT (designed binder) [R1c_M33], the EC50 in the experiment with huR4 [1] was roughly 300 nM.

B5: β-Klotho-binding monomer bKmutM28 (designed binder)
chain: CPWFHHFKCRNGQRIPLHLVCDGVPDCGDDSDETDCGDSHILPFSTPGPST
Turning to B5, the EC50 in experiment [5] came out at 214 nM.
In turn, CGAGQFTCRDTNICISRAWRCDGVDDCEDNSDEADCSQDPEFHKV (designed binder) [R1c_M08] had an EC50 with huR1b of 17 nM.
